According to PMC4850381 (2016):

T1: tree shrew CRHR1 extracellular domain (tree shrew)
T1 chain: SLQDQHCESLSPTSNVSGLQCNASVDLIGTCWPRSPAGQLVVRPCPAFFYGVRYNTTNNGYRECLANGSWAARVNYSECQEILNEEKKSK

T2: human CRHR1 extracellular domain (human)
T2 chain: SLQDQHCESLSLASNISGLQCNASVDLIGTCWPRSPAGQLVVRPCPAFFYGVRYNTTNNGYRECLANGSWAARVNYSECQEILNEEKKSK


Tests used:
[1] = biological target: T1, tree shrew CRHR1 extracellular domain; experiment: SPR; BIACORE3000; CRHR1-ECD immobilised on the sensor chip (about 2000 RU, 10 mM NaAc pH 4.5); CRH peptides serially diluted (5 concentrations) in PBS pH 7.4, 30 μl/min, 3 min injection, 2 min dissociation, 25 °C
[2] = biological target: T2, human CRHR1 extracellular domain; experiment: SPR
[3] = biological target: T1, tree shrew CRHR1 extracellular domain; experiment: SPR
[4] = biological target: T2, human CRHR1 extracellular domain; experiment: SPR; BIACORE3000; CRHR1-ECD immobilised on the sensor chip (about 2000 RU, 10 mM NaAc pH 4.5); CRH peptides serially diluted (5 concentrations) in PBS pH 7.4, 30 μl/min, 3 min injection, 2 min dissociation, 25 °C

Molecule | Kd [1] [nM] | Kd [2] [nM] | Kd [3] [nM] | Kd [4] [nM]
tree shrew corticotrophin-releasing hormone (CRH) peptide | 176 |  |  | 
SEEPPISLDLTFHLLREVLEMARAEQLAQQAHSNRKLMEIIGK [human corticotrophin-releasing hormone (CRH) peptide] |  | 2110 | 1460 | 211
SEEPPISLDLTFHLLREVLEMARAEQLAQQAHSNRKLMEMI [tree shrew corticotrophin-releasing hormone (CRH) peptide] |  | 2050 | 1760 | 
